How the values were obtained:
[1] = molecular target: T1, τ138 (Tfc3), τB subunit of endogenous S. cerevisiae TFIIIC (S. cerevisiae, UniProt P34111 1-1160); assay: cross-linking; XL-MS: purified endogenous TFIIIC (30 μg, 1 μg/μl) cross-linked with H12/D12 DSS to 2 mM, 40 min at 37 °C; ld-score >25; conditions: both partners purified
T1 construct: τ138 (Tfc3), subunit of S. cerevisiae TFIIIC, endogenous subunit in the purified complex; source: endogenous, purified from S. cerevisiae strain SC2342 as part of TFIIIC (TAP tag on τ60)
T1 sequence (looked up): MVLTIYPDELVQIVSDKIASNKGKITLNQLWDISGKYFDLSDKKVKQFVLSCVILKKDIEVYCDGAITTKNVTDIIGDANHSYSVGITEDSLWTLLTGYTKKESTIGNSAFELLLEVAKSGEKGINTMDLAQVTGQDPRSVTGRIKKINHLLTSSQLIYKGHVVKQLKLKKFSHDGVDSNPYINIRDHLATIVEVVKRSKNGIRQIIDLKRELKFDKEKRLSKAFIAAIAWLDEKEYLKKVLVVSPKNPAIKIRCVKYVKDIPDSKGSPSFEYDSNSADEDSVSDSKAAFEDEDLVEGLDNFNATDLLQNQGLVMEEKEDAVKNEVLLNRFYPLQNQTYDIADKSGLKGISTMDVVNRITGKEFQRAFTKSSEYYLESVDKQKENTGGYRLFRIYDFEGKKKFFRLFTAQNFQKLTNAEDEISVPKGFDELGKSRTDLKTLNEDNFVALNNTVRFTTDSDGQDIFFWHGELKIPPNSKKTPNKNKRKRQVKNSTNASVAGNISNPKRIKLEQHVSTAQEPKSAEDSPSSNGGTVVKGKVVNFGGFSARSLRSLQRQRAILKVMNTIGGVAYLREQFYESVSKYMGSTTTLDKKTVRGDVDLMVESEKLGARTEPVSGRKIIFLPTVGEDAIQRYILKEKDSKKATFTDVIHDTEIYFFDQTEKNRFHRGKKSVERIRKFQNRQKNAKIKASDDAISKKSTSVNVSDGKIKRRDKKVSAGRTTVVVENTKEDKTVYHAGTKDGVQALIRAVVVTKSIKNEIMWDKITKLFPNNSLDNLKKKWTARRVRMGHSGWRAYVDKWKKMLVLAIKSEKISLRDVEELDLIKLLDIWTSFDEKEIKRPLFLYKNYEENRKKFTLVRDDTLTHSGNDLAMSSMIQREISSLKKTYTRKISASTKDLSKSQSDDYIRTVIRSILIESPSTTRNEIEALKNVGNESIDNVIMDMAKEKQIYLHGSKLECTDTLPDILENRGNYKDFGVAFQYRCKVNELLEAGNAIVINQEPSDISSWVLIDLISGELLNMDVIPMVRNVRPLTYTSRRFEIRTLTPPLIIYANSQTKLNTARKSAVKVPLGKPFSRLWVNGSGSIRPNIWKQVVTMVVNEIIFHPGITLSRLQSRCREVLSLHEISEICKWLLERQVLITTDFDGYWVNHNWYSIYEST

[2] = molecular target: T2, τ131 (Tfc4), τA subunit of endogenous S. cerevisiae TFIIIC (S. cerevisiae, UniProt P33339 1-1025); assay: as above; conditions: both partners purified
T2 construct: τ131 (Tfc4), subunit of S. cerevisiae TFIIIC, endogenous subunit in the purified complex; Endogenous subunit; source: endogenous, purified from S. cerevisiae strain SC2342 as part of TFIIIC (TAP tag on τ60)
T2 sequence (looked up): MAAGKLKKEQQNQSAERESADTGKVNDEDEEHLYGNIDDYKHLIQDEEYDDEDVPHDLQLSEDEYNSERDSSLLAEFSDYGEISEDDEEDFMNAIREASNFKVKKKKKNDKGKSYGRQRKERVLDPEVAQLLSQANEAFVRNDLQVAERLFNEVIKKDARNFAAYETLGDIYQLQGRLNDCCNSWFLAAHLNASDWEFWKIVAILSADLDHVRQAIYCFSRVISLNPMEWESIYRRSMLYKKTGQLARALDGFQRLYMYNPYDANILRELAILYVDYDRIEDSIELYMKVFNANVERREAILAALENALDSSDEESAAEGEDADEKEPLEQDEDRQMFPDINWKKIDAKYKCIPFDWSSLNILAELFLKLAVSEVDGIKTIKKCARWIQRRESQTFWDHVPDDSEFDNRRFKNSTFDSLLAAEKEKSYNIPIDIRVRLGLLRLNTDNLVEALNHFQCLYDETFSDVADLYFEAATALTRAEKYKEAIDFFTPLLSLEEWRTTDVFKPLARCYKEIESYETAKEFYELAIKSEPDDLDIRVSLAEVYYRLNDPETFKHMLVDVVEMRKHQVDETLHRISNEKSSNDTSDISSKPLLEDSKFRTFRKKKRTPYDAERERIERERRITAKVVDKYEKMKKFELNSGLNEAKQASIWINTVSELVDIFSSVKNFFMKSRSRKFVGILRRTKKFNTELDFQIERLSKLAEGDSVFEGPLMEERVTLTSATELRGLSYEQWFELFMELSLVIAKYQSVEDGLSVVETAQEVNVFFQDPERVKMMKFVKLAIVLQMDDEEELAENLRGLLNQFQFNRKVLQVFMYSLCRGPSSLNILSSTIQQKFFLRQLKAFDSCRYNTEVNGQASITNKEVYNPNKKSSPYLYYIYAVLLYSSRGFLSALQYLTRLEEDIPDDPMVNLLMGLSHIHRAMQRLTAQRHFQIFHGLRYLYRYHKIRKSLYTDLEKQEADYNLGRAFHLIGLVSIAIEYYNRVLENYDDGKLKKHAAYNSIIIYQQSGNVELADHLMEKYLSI

- binding result [1]: binds
- binding result [2]: binds
B1: τ95 (Tfc1), τA subunit of endogenous S. cerevisiae TFIIIC (natural protein, UniProt P32367 1-649, looked up)
chain: MPVEEPLATLSSIPDSSADQAPPLIADEFTLDLPRIPSLELPLNVSTKHSSIQKAIKMCGGIEKVKEAFKEHGPIESQHGLQLYLNDDTDSDGSKSYFNEHPVIGKRVPFRDESVILKVTMPKGTLSKNNNSVKDSIKSLKDSNKLRVTPVSIVDNTIKFREMSDFQIKLDNVPSAREFKSSFGSLEWNNFKSFVNSVPDNDSQPQENIGNLILDRSVKIPSTDFQLPPPPKLSMVGFPLLYKYKANPFAKKKKNGVTEVKGTYIKNYQLFVHDLSDKTVIPSQAHEQVLYDFEVAKKTKVYPGTKSDSKFYESLEECLKILRELFARRPIWVKRHLDGIVPKKIHHTMKIALALISYRFTMGPWRNTYIKFGIDPRSSVEYAQYQTEYFKIERKLLSSPIVKKNVPKPPPLVFESDTPGGIDSRFKFDGKRIPWYLMLQIDLLIGEPNIAEVFHNVEYLDKANELTGWFKELDLVKIRRIVKYELGCMVQGNYEYNKYKLKYFKTMLFVKESMVPENKNSEEGMGVNTNKDADGDINMDAGSQMSSNAIEEDKGIAAGDDFDDNGAITEEPDDAALENEEMDTDQNLKVPASIDDDVDDVDADEEEQESFDVKTASFQDIINKIAKLDPKTAETMKSELKGFVDEVDL
notes: τ95 (Tfc1), subunit of S. cerevisiae TFIIIC, endogenous subunit in the purified complex; source: endogenous, purified from S. cerevisiae strain SC2342 as part of TFIIIC (TAP tag on τ60)
